The assay deals with biotin-labeled HA peptide. Put plainly: SPR (OpenSPR), biotin-labeled HA peptide on a Streptavidin chip, purified FB-GFP in solution, one-to-one model, two independent experiments.

“purified recombinant HA frankenbody fused with mEGFP and a hexahistidine tag (purified FB-GFP, from E. coli) (scFv)” showed a Kd of 14.7 nM.

For orientation: Kd means the free concentration of one partner at which half of the binding sites on the other are occupied at equilibrium, for simple one-to-one binding.

For the origin of these results see patent US20200102373A1.
